Measured values: PMC7082059 (PLoS Pathogens, 2020)
*: point of attachment. Biotin = O=C1N[C@H]2[C@H](CS[C@H]2CCCCC(=O)*)N1; linker = not defined here

Assays:
Details in all cases: both partners purified
[1] = biological target: T1, Biotin-linker-KQPADGNPDPNANPNV-NH2 (Junc) (Plasmodium falciparum, reading uncertain; also: biotin-linker structure not given here, printed as Biotin-linker-KQPADGNPDPNANPNV-NH2 (Junc)); assay: BLI; biotinylated peptide captured on streptavidin sensors, dipped into serial dilutions of Fab in Kinetics buffer (Dulbecco's PBS, 0.002% Tween20, 0.01% BSA), 25 °C, Octet Red
T1 construct: junctional region of the Plasmodium falciparum circumsporozoite protein (PfCSP), end of the N-terminal domain and first repeats; numbers count on: the peptide (K1-V16); The linker between biotin and peptide is not described; also called junctional peptide; source: synthetic peptide, bought: Innopep Inc
T1 chain: {Biotin-linker}-KQPADGNPDPNANPNV-NH2

[2] = biological target: T2, Biotin-linker-NPNANPNANPNANPNA-NH2 (NPNA)4 (Plasmodium falciparum, reading uncertain; also: biotin-linker structure not given here, printed as Biotin-linker-NPNANPNANPNANPNA-NH2 (NPNA)4); assay: as above
T2 construct: four NPNA repeats of the central NANP repeat region of the Plasmodium falciparum circumsporozoite protein (PfCSP); The linker between biotin and peptide is not described; also called NANP peptide; called (NPNA)3 in the results on BLI; source: synthetic peptide, bought: Innopep Inc
T2 chain: {Biotin-linker}-NPNANPNANPNANPNA-NH2

[3] = biological target: T3, Ac-KQPADGNPDPNANP-NH2 (Junc) (Plasmodium falciparum 3D7); assay: crystal structure; Fab at 11 mg/mL in TBS with a 5:1 molar ratio of peptide to Fab, crystals grown at 293 K
T3 construct: junctional region of the Plasmodium falciparum circumsporozoite protein (PfCSP); numbers count on: the peptide (K1-P14); also called junctional peptide for crystallography; source: synthetic peptide, bought: Innopep Inc., 98% purity
T3 chain: Ac-KQPADGNPDPNANP-NH2

[4] = biological target: T4, Biotin-linker-NPNANPNANPNANPNA-NH2 (NPNA)4 (Plasmodium falciparum, reading uncertain; also: biotin-linker structure not given here, printed as Biotin-linker-NPNANPNANPNANPNA-NH2 (NPNA)4); assay: BLI; Octet Red; biotinylated peptide (10 ug/mL) captured on streptavidin sensors, dipped into serial dilutions of Fab in Kinetics buffer (Dulbecco's PBS, 0.002% Tween20, 0.01% BSA); 25 C; Fab667-Junc fitted to a biphasic binding model; errors are fitting errors
T4 construct: four NPNA repeats of the central repeat region of Plasmodium falciparum circumsporozoite protein (PfCSP); also called NANP peptide; source: synthetic peptide, ordered from Innopep Inc
T4 chain: {Biotin-linker}-NPNANPNANPNANPNA-NH2

[5] = biological target: T5, Biotin-linker-KQPADGNPDPNANPNV-NH2 (Junc) (Plasmodium falciparum, reading uncertain; also: biotin-linker structure not given here, printed as Biotin-linker-KQPADGNPDPNANPNV-NH2 (Junc)); assay: as above
T5 construct: junctional region between the N-terminal domain and the central repeats of Plasmodium falciparum circumsporozoite protein (PfCSP); also called junctional peptide; source: synthetic peptide, ordered from Innopep Inc
T5 chain: {Biotin-linker}-KQPADGNPDPNANPNV-NH2

[6] = biological target: T6, Ac-NPNANPNANPNA-NH2 [(NPNA)3] (Plasmodium falciparum 3D7); assay: crystal structure; Fab at 11 mg/mL in TBS with a 5:1 molar ratio of peptide to Fab, crystals grown at 293 K
T6 construct: three NPNA repeats of the central NANP repeat region of the Plasmodium falciparum circumsporozoite protein (PfCSP); numbers count on: the peptide (N1-A12); also called (NPNA)3 peptide; source: synthetic peptide, bought: Innopep Inc., 98% purity
T6 chain: Ac-NPNANPNANPNA-NH2

B1: Fab668 (Fab, V domains shown)
VH: QVQLVQSGAEVKKPGASVKVSCKASGFTFTDYAMHWVRQAPGQRLEWMGWINAGNGYTKYSQKFQDRLTITRDTFASTVYMELSSLRSEDTTVYYCARDGFCPSNTCSGYYGMDVWGQGTTVTVSS
VL: QSALTQPASVSGSPGQSITISCTGTSSDVGSYNYVSWYQQHPGKAPKLMIYDVNTRPSGVSIRFSASKSGNTASLTVSGLQAEDEAVYYCSSYAGSSTWVFGGGTKLTVL
notes: Fab heavy chain; germline VH1-3*01; CDR H3 of 17 residues with a disulfide between Cys98 and Cys100C; lambda light chain; germline Vλ2-23*02; source: purified
[1]
  Kd: 206 nM
[2]
  Kd: 56 nM
[3]
  binding result: binds

B2: Fab668 (Fab, V domains shown)
VH: QVQLVQSGAEVKKPGASVKVSCKASGFTFTDYAMHWVRQAPGQRLEWMGWINAGNGYTKYSQKFQDRLTITRDTFASTVYMELSSLRSEDTTVYYCARDGFCPSNTCSGYYGMDVWGQGTTVTVSS
VL: QSALTQPASVSGSPGQSITISCTGTSSDVGSYNYVSWYQQHPGKAPKLMIYDVNTRPSGVSIRFSASKSGNTASLTVSGLQAEDEAVYYCSSYAGSSTWVFGGGTKLTVL
notes: Germline genes VH1-3*01 and Vlambda2-23*02; CDR H3 of 17 residues; also called mAb668 (as IgG)
[4]
  Kd: 55.6 nM
  koff: 0.00179 s⁻¹
  kon: 32200 M⁻¹ s⁻¹
[5]
  koff: 0.00424 s⁻¹
  kon: 20600 M⁻¹ s⁻¹

B3: Fab317 (Fab, V domains shown)
VH: QMQLVESGGGVVQPGRSLRLSCTASGFTFSTYAMHWVRQSPGQGLQWVAVISYHSTNKYYEDSVRGRFTISRDNSKNTLYLQMNSLRAEDTAVYYCARDGYSSSFFDFWGQGTLVTVSS
VL: DIQMTQSPSTLSASVGDRVAITCRASQSISRWLAWYQQQPGKAPKLLMSGASVLESGVPSRFSGSGSGTEFTLTISSLQPDDFATYYCQHYNSYFVTFGQGTKVEIK
notes: Fab heavy chain; in the cited structure of Fab317, PDB 6AXL; Fab light chain; NANP-only antibody used for comparison; source: purified
[1]
  binding result: no binding (tested: 8000 nM)
[2]
  Kd: 25 nM

B4: Fab317 (Fab, V domains shown)
VH: QMQLVESGGGVVQPGRSLRLSCTASGFTFSTYAMHWVRQSPGQGLQWVAVISYHSTNKYYEDSVRGRFTISRDNSKNTLYLQMNSLRAEDTAVYYCARDGYSSSFFDFWGQGTLVTVSS
VL: DIQMTQSPSTLSASVGDRVAITCRASQSISRWLAWYQQQPGKAPKLLMSGASVLESGVPSRFSGSGSGTEFTLTISSLQPDDFATYYCQHYNSYFVTFGQGTKVEIK
notes: heavy chain of Fab317 in the cited crystal structure PDB 6AXL; light chain of Fab317 in the cited crystal structure PDB 6AXL; also called mAb317 (as IgG)
[4]
  koff: 0.00146 s⁻¹
  kon: 58400 M⁻¹ s⁻¹
[5]
  binding result: no binding (tested: 8000 nM)

B5: Fab667 (Fab, V domains shown)
VH: QVQLVQSGAEVKKPGASVKVSCRASGYTFTNYAMHWVRQAPGQRLEWMGWINAGNGYTKYSQKFQDRVTITRDTSATTAYMELSSLRSEDTAMYYCARDSFYDILSGPVYHYYGMDVWGQGTTVTVSS
VL: QSALTQPDSVSGSPGQSITISCTGTSNDVGIYNHVSWYQQHPGKAPKLMIYDVNKRPSGISNRFSGSKSGDTASLTISGLQAEDEADYYCCSYAGSSAWVFGGGTKLTVL
notes: Fab heavy chain; germline VH1-3*01; CDR H3 of 19 residues; lambda light chain; germline Vλ2-23*02; source: purified
[2]
  Kd: 170 nM
[6]
  binding result: binds

B6: Fab667 (Fab, V domains shown)
VH: QVQLVQSGAEVKKPGASVKVSCRASGYTFTNYAMHWVRQAPGQRLEWMGWINAGNGYTKYSQKFQDRVTITRDTSATTAYMELSSLRSEDTAMYYCARDSFYDILSGPVYHYYGMDVWGQGTTVTVSS
VL: QSALTQPDSVSGSPGQSITISCTGTSNDVGIYNHVSWYQQHPGKAPKLMIYDVNKRPSGISNRFSGSKSGDTASLTISGLQAEDEADYYCCSYAGSSAWVFGGGTKLTVL
notes: Germline genes VH1-3*01 and Vlambda2-23*02; CDR H3 of 19 residues; also called mAb667 (as IgG)
[4]
  Kd: 176 nM
  koff: 0.00429 s⁻¹
  kon: 24400 M⁻¹ s⁻¹
